Measured values: publication PMC4613710, “A biophysical study on molecular physiology of the uncoupling proteins of the central nervous system” (Bioscience Reports, 2015)

B1: human uncoupling protein 5 (His6-ENLYFQG-hUCP5) (natural protein, UniProt O95258 1-325, looked up)
chain: MGIFPGIILIFLRVKFATAAVIVSGHQKSTTVSHEMSGLNWKPFVYGGLASIVAEFGTFPVDLTKTRLQVQGQSIDARFKEIKYRGMFHALFRICKEEGVLALYSGIAPALLRQASYGTIKIGIYQSLKRLFVERLEDETLLINMICGVVSGVISSTIANPTDVLKIRMQAQGSLFQGSMIGSFIDIYQQEGTRGLWRGVVPTAQRAAIVVGVELPVYDITKKHLILSGMMGDTILTHFVSSFTCGLAGALASNPVDVVRTRMMNQRAIVGHVDLYKGTVDGILKMWKHEGFFALYKGFWPNWLRLGPWNIIFFITYEQLKRLQI
notes: uncoupling protein 5 (UCP5), human; cDNA bought from A.T.C.C., sub-cloned into pET26b(+); Tetramer is the predominant form in POPC liposomes without SDS; dimers and a few monomers at 83 mM SDS; also called neuronal UCP
B2: human uncoupling protein 2 (His6-ENLYFQG-hUCP2) (natural protein, UniProt P55851 1-309, looked up)
chain: MVGFKATDVPPTATVKFLGAGTAACIADLITFPLDTAKVRLQIQGESQGPVRATASAQYRGVMGTILTMVRTEGPRSLYNGLVAGLQRQMSFASVRIGLYDSVKQFYTKGSEHASIGSRLLAGSTTGALAVAVAQPTDVVKVRFQAQARAGGGRRYQSTVNAYKTIAREEGFRGLWKGTSPNVARNAIVNCAELVTYDLIKDALLKANLMTDDLPCHFTSAFGAGFCTTVIASPVDVVKTRYMNSALGQYSSAGHCALTMLQKEGPRAFYKGFMPSFLRLGSWNVVMFVTYEQLKRALMAACTSREAPF
notes: uncoupling protein 2 (UCP2), human; cDNA clone pET21a-UCP2 sub-cloned into pET26b(+); Tetramer is the predominant form in POPC liposomes without SDS; dimers and a few monomers at 83 mM SDS; PDB 2LCK is only viewed as a model of UCP2; also called neuronal UCP
B3: human uncoupling protein 4 (His6-ENLYFQG-hUCP4) (natural protein, UniProt O95847 1-323, looked up)
chain: MSVPEEEERLLPLTQRWPRASKFLLSGCAATVAELATFPLDLTKTRLQMQGEAALARLGDGARESAPYRGMVRTALGIIEEEGFLKLWQGVTPAIYRHVVYSGGRMVTYEHLREVVFGKSEDEHYPLWKSVIGGMMAGVIGQFLANPTDLVKVQMQMEGKRKLEGKPLRFRGVHHAFAKILAEGGIRGLWAGWVPNIQRAALVNMGDLTTYDTVKHYLVLNTPLEDNIMTHGLSSLCSGLVASILGTPADVIKSRIMNQPRDKQGRGLLYKSSTDCLIQAVQGEGFMSLYKGFLPSWLRMTPWSMVFWLTYEKIREMSGVSPF
notes: uncoupling protein 4 (UCP4), human; cDNA synthesized by GenScript, sub-cloned into pET26b(+); Tetramer is the predominant form in POPC liposomes without SDS; dimers and a few monomers at 83 mM SDS; also called neuronal UCP

Biological target: the molecule itself
Assay: native gel or EMSA; semi-native PAGE (12% gel), UCP reconstituted in POPC liposomes titrated with SDS to 83 mM (about 40x CMC), Coomassie stain; bands identified by LC-MS/MS

Protein	stoichiometry N
B1	2
B2	2
B3	2

Biological target: the molecule itself
Assay: far-UV CD spectroscopy, SDS titration; UCP reconstituted in POPC liposomes titrated with SDS (0-83 mM); normalised theta208/theta222 against [SDS], Hill fit; K1/2 = [SDS] at 50% protein dissociation; tetramer to dimers

Protein	CD K1/2 ([SDS] at 50% protein dissociation) [mM SDS]
B1	1 ± 0.1
B2	1.1 ± 0.1
B3	1 ± 0.1

Biological target: the molecule itself
Assay: native gel or EMSA; semi-native PAGE (12% gel, 2 mM SDS in running buffer only), UCP reconstituted in POPC liposomes, loading buffer lacking SDS, Coomassie stain; bands identified by LC-MS/MS

Protein	stoichiometry N
B1	4
B2	4
B3	4

Biological target: the molecule itself
Assay: other fluorescence titration; Trp fluorescence (excitation 295 nm, 25 C) of UCP in POPC liposomes titrated with SDS (0-83.9 mM); maximum intensity against [SDS], Hill fit; Ka1/2 low SDS range (0-10 mM): tetramer to tight dimers; Kb1/2 high SDS range (10-100 mM): tight dimers to loose dimers and monomers

Protein	Fl Ka1/2 (first transition, tetramer to dimers, [SDS]) [mM SDS]	Fl Kb1/2 (second transition, dimers to loose dimers and monomers, [SDS]) [mM SDS]
B1	0.6 ± 0.1	8.9 ± 0.2
B2	0.61 ± 0.1	7.1 ± 0.3
B3	0.6 ± 0.1	9.8 ± 0.3
